# Data published in the DeepSol protein solubility set.
# Test: soluble on expression in E. coli; label from the status in PepcDB or PDB records
row,Sequence,soluble on expression in E. coli
1,MAHHHHHHMYLCWNDTFLTSFALDTLLSKLVAEVCEKRPVSSRQVLELMREALETQKMQQWYYSETVRSFNDAVNSLSRRGFPLQMACPLYFRIPQEDGGVHELFRYGSEIAVTPNNYDHFEHMLKRYQAVVNGELSQEGYYDAVRHLLPISAHCNLLNSSYTPIINFLQECLLNPRSQWAIQSSSVWDQLGVTYAVPFAGRLFAVDPTKPVTALVSFEDANRYVEMASERCRTLSSLLTTGASLNVVRRAAAAAASPPSASSGRAAVKLAPSTIPVASSAATSEEARKWEAFEAIGLRPEVFSDMSPAEIEFWKYILRLRESPSQIHDISFHLEFGPHHMDLKENGRFIPVTRLNLNQFIEAVVAKQDEVHRYINEVALVTPTHSNASRDAGGGGEGSAGPPPPPVAASNTAAAQAMPAPQQDIKIPAQPPPRTIGSEATSPVGHAQSEAHRDNEAHLTLRDVDSTVVRSIMELRSQYQLGRLTKTELNARQLRFCLPCRDGVYNLIPNGRHIQVATGNIGIFLQYVEEEKKRVEALSGGKSEDSAARACSHAPEATTGGTGSLNVIQRDRERVYGAVEAADADAGYWTDKNVLDIWTYECTTACLLKSSMSPEEIVRQTQLQWDTNFLSRKDCPYANASEDGCVILPKDVKTYLRLLRRRLQSIRLAILDAGKCPQEPSEWDVGEWDVVNPSTPPLEFEVPASVHAIPSAPENLTMFSPTHNTGGLLAPSQSLYL,not soluble
2,VKNSNGVREKDGKPFRVELYYAGSDTVRRDIAIEFSSQMKKLGLDFPTIASTWDEIETKLGDVSVVLGGGSAPYDLTIMAYEYLHTRTPSTGKWANPGDYGSEKLNALLDQARSEVDVEKRNNLWRKIQAEYVNNPSALNLVNIDHVYVGKKNDWKKPELLLEPHIHGVTWGPWWRISEWTK,not soluble
3,MESFQTIVDNEVLMESCGIQQESKIKNFPWAVSFTVDGVNRLGGSIISPYHIITAAHGFITTIGSRGNLCENKNWKKPNSSIYRSIKFLRDTRKVAYGGTCIRGHTDKYPNDPRCKKSDVIHNKVRAVLVDGEFASSNCLKGHDWAIVEVEKRIHFSENVRPICLPRPNMYYTKSLAVPGWGRIFNESGPLIHEIPMRIDRDCKRPWSDRLPADADDFICATSMNVSNYSAPRTCHGDSGGGLEYRDDNYGRAFLIAITSFGTRGCPSNMLARFTRVDMYLNLICNYTGVCY,not soluble
4,MVAGNSAHEMVSILNQNRTARKLGKLNESPGLGCMALQYVELCEGNCNVNNTLSCEHPEDDFTQVFAPNCGVELPTFGTITGHILGCSSKYAAPEVAFSDILFRDSSALSVLRNRSHTEVGVGMARLHKGTFFWCLLFSDGVKNSSFVLEDNGRGIKQRTGCYSGSAFPCSSNAHMICMRLLNSFLGLLFSSFCLFEKHLKF,soluble
5,MSVAGLKKQFHKASQLFSEKISGAEGTKLDEEFLNMEKKIDITSKAVAEILSKATEYLQPNPAYRAKLGMLNTVSKLRGQVKATGYPQTEGLLGDCMLKYGKELGEDSAFGNSLVDVGEALKLMAEVKDSLDINVKQTFIDPLQLLQDKDLKEIGHHLRKLEGRRLDYDYKKRRVGKIPEEEIRQAVEKFEESKELAERSMFNFLENDVEQVSQLAVFVEAALDYHRQSTEILQELQSKLELRISLASKVPKREFMPKPVNMSSTDANGVGPSSSSKTPGTDTPSDQPCCRGLYDFEPENEGELGFKEGDIITLTNQIDENWYEGMLRGESGFFPINYVEVIVPLPP,soluble
6,MVGLSTGSWVKVLTSMPNLESITVVELNPAYVQLASSYPAMADLLKDNRVNIITDDGRRWLNKNPDQKFDLILMNTTFHWRNYATNLLSQQFLTVTKQHLTDNGFIYFNTTDALDAYKTSQAVFPHVYAYENMSLASLKPIAVPTTPEVHRALANLKWHDGRHIFNSPAEIAEGTARIVNTPLIPYKDIDFSPLKRPAKIITDTNMITEYKYGRLNTVINK,not soluble
7,MADLFDEFIEPGVKNEIMDVEEAPENPMEKLDSAKKRQAREDMTNLLANMHNDVGVGNFDEATSKRARVEEEEEVEEARMENIIVHTIRTDNENCTHEVAIPPNAEFAELRENSGTEPAKYYPFQLDAFQKQAILCIDNNQSVLVSAHTSAGKTVVATYAIAKCLREKQRVIYTSPIKALSNQKYRELEEEFKDVGLMTGDVTLNPDASCLVMTTEILRSMLYRGSEIMKEVGWVVYDEIHYMRDKERGVVWEETIILMSKNIKQAFLSATIPNARQFAQWVASIKQQPVNVVYTDYRPTPLQHWIYPVGGEGMYEVVNVKGEFREDKFRDAMSGLATAGDSAGSFNKRRTGGGTQGDSNVLKIIRSVASNDGLNCIVFSFSRKECESYAISLKDMDFNKDHEKGMVKSVYESAIAQLSPEDQKLPQILNILPLLRRGIGVHHSGLMPILKETIEILFGEGLVKVLFATETFSMGLNMPARTVVFTSARKFDGSDNRYITSGEYIQMAGRAGRRGKDDRGTVILMVDSAMSADDAKQIIKGATDPLNSQFRLTYNMVLNLMRVEGMAVSWIINNSFHQFQSYAKIPEIDKKCVQVERKIASFNFPWENEMRTLVDLQDQLEATRQRIIQIQREPKYIVGFLHAGRLFKVKSGDRDFKWGILNQFKKEQNPDDRNDQIYLCDMMIAINTEGRFDPTNPATLVPGFDLPKRRWIRVPMTIDRITAISAVRLKVPADIDKPDGQMRLDGMMAAATKRFGNQIPLLDPIQDMEIKTVEMKELIAREKSLEGRLETHSMTKRDNMKDLKKQFEQKQDAVKELNALKAERKSVQSTLHLEELNNRKRVLRRLGYLGNDDALVLKGSVACELSASDELILTEMLLKGIFNTLDVAQTAALLSCFVFQDKCAAPKLATELQTCLSELHEQARNVAKVSNECKMEVMEDKYVSSFNPGLMDVVYQWVNGATFSEIVKTTDVFEGSIIRTLRRLEEVLREMINAAKALANKELEQKFEDARKNLKRDIVFAASLYL,not soluble
8,MVITDTAAWVQSQSRSIVDFISAPNSNSSLPPYVQIGAAAAVTMGLGYYLSKSSSSTSGSYSFSGVTYSGNVKPLVDPMNQSRILPDGSRISAYLKDDELQAFLFEDARTLYQGVRRGARLSNNGPMLGRRVKQSDGSIPYVWESYNTILERADNVSVAFRELGVPTGNAENIGIYSKNRAEWIITEFATYNYSNVIVPIYETLGSEASIFILNQAEIKIVVCDDISKATGLLKFKEQCPSLSTLVVMEPVTDELKTTASSLGVEVLTFEDLEKIGKNAKTRPAHIPPTPEDLATICYTSGTTGTPKGVMLTHANVIADGVCMDFFKHSGIAATDSMISFLPLAHMLERVIESVCFCVGAKVGFYRGDIRVLAEDIKELKPTVVPVVPRVLNRLYDKVMSEVNKSTLKKMLFDFAISYKARDMANFNIRNDGFFDNLVFKKIREGFGGRVRLMITGSAPLSTNVLTFVRAAMGCVVVEGYGQTECVAACTVSMEGDSLAGHVGMVIPSCQIKLVDVPELNYYAKDQAGEVCVKGHIIFKGYYKNEQQTKETIDEDGWLHTGDIGRWTPEGTLKIVDRKKHIFKLSQGEYVAPEKIENIYVRSKYVAQSFVHGESLKTCLIAIVVPDAEVLVPAMADQGIKGTFEELCNNDAVKKAILDDMVAVGKKAGLFSFEQVRDISLSAEQFSVENDLLTPTLKSKRPKLKAHYSKQLDAMYSKLP,not soluble
9,MTEVILFFFATPKRATFSLELTSMKKLATLLAGSACALSLLSGTAAAEDKELVFMNWGPYINSGILEQFTKETGIKVIYSTYESNETLYAKLKTHNQGYDLVVPSTYFVAKMRDEGMLQKIDKSKLSNFKNLDSNYLDKPYDPNNDYSIPHVVAITGLAVNTDMYDPNDFQSWGDLWKPELKGQLMLMDDTREVFHIALRKLGYSGNSTDDKQIDEAYAELQKLMPNVLVFNSDNPAAPYLSGEVGLGMLWNGSAAAAQKEGLPIKLVFPKEGGIGWVDNFAISSGAKNVDAAHKMIDFLLRPEIAEQISRDTGYLTGVKASNDKFQDVAPLFPSQEDLDRVEWQSAVGDKTVKYEEYFMKLKAGQ,not soluble
10,MREIVTIQVGEFANFVGSHFWNFQDELLGLASDPESDPIFRNHNLDMDVLYRSGETQQGVATYTPRLVSVNLKGALGTMSSRGTLYNEGSSSRSDSSATWFGDVDTQRSEPRKRNLFLQSLYEEEHVVGKEKAKEIEDKDIVGCLDEEVECWTDFSKSHYHPQSLYELNGLWMDSQAFNNYGIGKDVFSEASRGEEICDRLRFFVEECDHIQGIKFLVDDSGGFSAVAADFLENMADEYTNVPVLLYSVRTPMSQMSSKKTVSNKLHDAISFSRLSSFCKLFTPIGLPSLTGSKASKFLNLGDEKPYRSSAVYAAALHSSTIPFRMQPTSSDSSEVSNSMDVNTLVQLLTGRGRQNIVAILDSAMPAPTLAGKQLENTLLTSLQALTPEVTEDVEDNQAVESMCILGALRSEDKEALVSEVKNAVDASYEQATTKGKPLFCNLSVSRCPLPVPLPFPSIFGNLVGRKGEILSSPVSDSLYRGSLDVHSIPVATRWRSSSAILPFLETRMGNLEKLGIQWGAMGSDVVRAWGFGREELQEMRENLSKMVSELNPQFFESSDSD,soluble
11,MSLETVRLQRELIEAQRQTYNEMRTYFTVNGVEGVIGAVFDEGVITLRVPSEVLFAPGAVELAPGADRVLATLKDLFIRRREQNINIKGFTDDVQPSANARFKDNWEVSALRSVNVLRYFLGAGIEPARLTATGLGELDPLFPNTSDENRARNRRVEFVLERRVVREGHHHHHH,soluble
12,MGSDKIHHHHHHMKKLIDYLKANKITEVECVISDMTGIARGKIAPVDKFIDEKGMRLPESVLLQTVTGDYVDDDLYDSLLDKADIDFVCVPDENAVFMLPWTVEATAQVIHDTFDKMGNPIELSPRNLLKKVLKLYEDKGWKPVIAPEMEFYLTHRNSDPDMPLIPPVGRSGRKESGRQSFSIDAANEYDPLFEDMYDWCEAQGLDIDTLIHEEGTAQMEINFSHGDALSLADQVFVFKRTLREAALKHDVCATFMAKPVTDEPGSAMHIHQSVVDIKTGKNIFTNEDGTKSAKFLCYIGGLQKYIPELLPLMAPNVNSFRRFLPGTSAPVNLEWGDENRTCGLRIPESSPQNRRIENRIAGADANSYLAIAATLLCGYMGMVEDVKPSTPVQGRANENRQGISLPLTLEEALAVMSESSAVREYLGDTFTSGYIAVKQADLENFRRVISSWEREFLLLTV,not soluble
13,MVNAEEQQYLNLVQYIINHGEDRPDRTGTGTLSVFAPSPLKFSLRNKTFPLLTTKRVFIRGVIEELLWFIRGETDSLKLREKNIHIWDANGSREYLDSIGLTKRQEGDLGPIYGFQWRHFGAEYIDCKTNYIGQGVDQLANIIQKIRTSPYDRRLILSAWNPADLEKMALPPCHMFCQFYVHIPSNNHRPELSCQLYQRSCDMGLGVPFNIASYALLTCMIAHVCDLDPGDFIHVMGDCHIYKDHIEALQQQLTRSPRPFPTLSLNRSITDIEDFTLDDFNIQNYHPYETIKMKMSI,soluble
14,MEIDDCIRDNIPWANLSPDIKVILGNSSKEYEKRVLEYSIQNQLRYKGNLIRHMKKSEEAYYEQLLRFSESHLMLYPYHLSDITVTEMRLSPFSYYANILTEMLNTEKSYDSLPNFTAADAVRLLGIGRNQYIELMNQTRSNRKFLRRSKSARELLPQKPTKMIVESWWRTNVGSILESDVKTLNEEEKQVIDRLLDTNVAIPAGLLKYSVVTSLYDRGLIYFDVPVYDNDYIYVAPLDGFVMNRVLGDYFETLLYKIFVAIDDQTTVLEMSQILHIDLQLVKNAISVFCRLGFARKRVTGGENLTIHTSWTSNSTVTTPMSPISPMSSLITSTSDELNELTKTLLRGDDDETDDALSPVSEDSALRASSPNPSLNNSVESFQSLSTSQTASDLSGSSGTVNRAAFIFDSTLTAFLMMGNLSASLKGHAVALFEVGKLADEQMKEFLEQLESVNQFAEGDAQRYSMHATALLDSLKSLRQEREADLIRGESLYTLDEKSRQRVLQKSYGILVAMAPLSIEACAIPVQSVPLIGPPNAETCSPWFRLSIYSACSSGPPSVFLPHGTRLTTLPRVLQSFQHHRFLVSSTKHEPHIMTAQNALFALNDMLVYSSIFVQSVPLDSEDCDKMIHVPFPFEDLECETAFCNHPAIRKLREQLSLDFTAGYVILLKKSGKSITTSGSDISGRTKAESNIMQDVSLPKDGGLLKKLLPGTSFDDFLLLDCVFGVPLFNSVLNETICKRILGRGILEQQNRSNIQNSNKQVVGMINELIDTANNGLIKGSQLFVEGTDQQRNAQIVPPVRAIFFDSSQLISYGTI,not soluble
